Data: the supplement of paper PMC11316812
± gives the standard deviation of the averaged measurements.

Legend:
[1] = system: hTERT-HMEC; experiment: percentage of EdU-negative (G0-arrested) nuclei per well, 72 h; higher = more G0 arrest; conditions: reference: sequence is the full UniProt precursor, the tested protein was the secreted form or ectodomain
[2] = system: MCF7; experiment: as above; conditions: reference: sequence is the full UniProt precursor, the tested protein was the secreted form or ectodomain
[3] = protein concentration 0.03125 µM
[4] = protein concentration 0.3125 µM
[5] = protein concentration 0.0292375 µM
[6] = protein concentration 0.292375 µM
[7] = protein concentration 0.0208571 µM
[8] = protein concentration 0.208571 µM
[9] = protein concentration 0.0055 µM
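Also: secreted proteins added to cultured cells, EdU pulse at the end, nuclei found by Hoechst imaging, EdU status from nuclear versus surrounding ring intensity ratio, PBS as neutral control.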

MRALVLLLSLFLLGGQAQHVSDWTYSEGALDEAHWPQHYPACGGQRQSPINLQRTKVRYNPSLKGLNMTGYETQAGEFPMVNNGHTVQISLPSTMRMTVADGTVYIAQQMHFHWGGASSEISGSEHTVDGIRHVIEIHIVHYNSKYKSYDIAQDAPDGLAVLAAFVEVKNYPENTYYSNFISHLANIKYPGQRTTLTGLDVQDMLPRNLQHYYTYHGSLTTPPCTENVHWFVLADFVKLSRTQVWKLENSLLDHRNKTIHNDYRRTQPLNHRVVESNFPNQEYTLGSEFQFYLHKIEEILDYLRRALN
percentage of EdU-negative [1, 3]: 5.04 ± 0.54%
percentage of EdU-negative [1, 4]: 4.6 ± 0.89%
percentage of EdU-negative [2, 3]: 24.6 ± 1.3%
percentage of EdU-negative [2, 4]: 23.7 ± 0.28%

MDLWQLLLTLALAGSSDAFSGSEATAAILSRAPWSLQSVNPGLKTNSSKEPKFTKCRSPERETFSCHWTDEVHHGTKNLGPIQLFYTRRNTQEWTQEWKECPDYVSAGENSCYFNSSFTSIWIPYCIKLTSNGGTVDEKCFSVDEIVQPDPPIALNWTLLNVSLTGIHADIQVRWEAPRNADIQKGWMVLEYELQYKEVNETKWKMMDPILTTSVPVYSLKVDKEYEVRVRSKQRNSGNYGEFSEVLYVTLPQMSQFTCEEDFYFPWLLIIIFGIFGLTVMLFVFLFSKQQRIKMLILPPVPVPKIKGIDPDLLKEGKLEEVNTILAIHDSYKPEFHSDDSWVEFIELDIDEPDEKTEESDTDRLLSSDHEKSHSNLGVKDGDSGRTSCCEPDILETDFNANDIHEGTSEVAQPQRLKGEADLLCLDQKNQNNSPYHDACPATQQPSVIQAEKNKPQPLPTEGAESTHQAAHIQLSNPSSLSNIDFYAQVSDITPAGSVVLSPGQKNKAGMSQCDMHPEMVSLCQENFLMDNAYFCEADAKKCIPVAPHIKVESHIQPSLNQEDIYITTESLTTAAGRPGTGEHVPGSEMPVPDYTSIHIVQSPQGLILNATALPLPDKEFLSSCGYVSTDQLNKIMP
percentage of EdU-negative [1, 5]: 4.42 ± 0.8%
percentage of EdU-negative [1, 6]: 6.44 ± 1.3%
percentage of EdU-negative [2, 5]: 25 ± 3.3%
percentage of EdU-negative [2, 6]: 24.5 ± 1.6%

MPWPLLLLLAVSGAQTTRPCFPGCQCEVETFGLFDSFSLTRVDCSGLGPHIMPVPIPLDTAHLDLSSNRLEMVNESVLAGPGYTTLAGLDLSHNLLTSISPTAFSRLRYLESLDLSHNGLTALPAESFTSSPLSDVNLSHNQLREVSVSAFTTHSQGRALHVDLSHNLIHRLVPHPTRAGLPAPTIQSLNLAWNRLHAVPNLRDLPLRYLSLDGNPLAVIGPGAFAGLGGLTHLSLASLQRLPELAPSGFRELPGLQVLDLSGNPKLNWAGAEVFSGLSSLQELDLSGTNLVPLPEALLLHLPALQSVSVGQDVRCRRLVREGTYPRRPGSSPKVALHCVDTRDSAARGPTIL [Q8WUA8]
percentage of EdU-negative [1, 3]: 5.33 ± 0.84%
percentage of EdU-negative [1, 4]: 5.25 ± 0.93%
percentage of EdU-negative [2, 3]: 28 ± 1.4%
percentage of EdU-negative [2, 4]: 29.1 ± 0.81%

MGKNKLLHPSLVLLLLVLLPTDASVSGKPQYMVLVPSLLHTETTEKGCVLLSYLNETVTVSASLESVRGNRSLFTDLEAENDVLHCVAFAVPKSSSNEEVMFLTVQVKGPTQEFKKRTTVMVKNEDSLVFVQTDKSIYKPGQTVKFRVVSMDENFHPLNELIPLVYIQDPKGNRIAQWQSFQLEGGLKQFSFPLSSEPFQGSYKVVVQKKSGGRTEHPFTVEEFVLPKFEVQVTVPKIITILEEEMNVSVCGLYTYGKPVPGHVTVSICRKYSDASDCHGEDSQAFCEKFSGQLNSHGCFYQQVKTKVFQLKRKEYEMKLHTEAQIQEEGTVVELTGRQSSEITRTITKLSFVKVDSHFRQGIPFFGQVRLVDGKGVPIPNKVIFIRGNEANYYSNATTDEHGLVQFSINTTNVMGTSLTVRVNYKDRSPCYGYQWVSEEHEEAHHTAYLVFSPSKSFVHLEPMSHELPCGHTQTVQAHYILNGGTLLGLKKLSFYYLIMAKGGIVRTGTHGLLVKQEDMKGHFSISIPVKSDIAPVARLLIYAVLPTGDVIGDSAKYDVENCLANKVDLSFSPSQSLPASHAHLRVTAAPQSVCALRAVDQSVLLMKPDAELSASSVYNLLPEKDLTGFPGPLNDQDNEDCINRHNVYINGITYTPVSSTNEKDMYSFLEDMGLKAFTNSKIRKPKMCPQLQQYEMHGPEGLRVGFYESDVMGRGHARLVHVEEPHTETVRKYFPETWIWDLVVVNSAGVAEVGVTVPDTITEWKAGAFCLSEDAGLGISSTASLRAFQPFFVELTMPYSVIRGEAFTLKATVLNYLPKCIRVSVQLEASPAFLAVPVEKEQAPHCICANGRQTVSWAVTPKSLGNVNFTVSAEALESQELCGTEVPSVPEHGRKDTVIKPLLVEPEGLEKETTFNSLLCPSGGEVSEELSLKLPPNVVEESARASVSVLGDILGSAMQNTQNLLQMPYGCGEQNMVLFAPNIYVLDYLNETQQLTPEIKSKAIGYLNTGYQRQLNYKHYDGSYSTFGERYGRNQGNTWLTAFVLKTFAQARAYIFIDEAHITQALIWLSQRQKDNGCFRSSGSLLNNAIKGGVEDEVTLSAYITIALLEIPLTVTHPVVRNALFCLESAWKTAQEGDHGSHVYTKALLAYAFALAGNQDKRKEVLKSLNEEAVKKDNSVHWERPQKPKAPVGHFYEPQAPSAEVEMTSYVLLAYLTAQPAPTSEDLTSATNIVKWITKQQNAQGGFSSTQDTVVALHALSKYGAATFTRTGKAAQVTIQSSGTFSSKFQVDNNNRLLLQQVSLPELPGEYSMKVTGEGCVYLQTSLKYNILPEKEEFPFALGVQTLPQTCDEPKAHTSFQISLSVSYTGSRSASNMAIVDVKMVSGFIPLKPTVKMLERSNHVSRTEVSSNHVLIYLDKVSNQTLSLFFTVLQDVPVRDLKPAIVKVYDYYETDEFAIAEYNAPCSKDLGNA
percentage of EdU-negative [1, 7]: 4.57 ± 0.3%
percentage of EdU-negative [1, 8]: 5.37 ± 0.84%
percentage of EdU-negative [2, 7]: 23 ± 0.6%
percentage of EdU-negative [2, 8]: 27.8 ± 2.3%

MWGLKVLLLPVVSFALYPEEILDTHWELWKKTHRKQYNNKVDEISRRLIWEKNLKYISIHNLEASLGVHTYELAMNHLGDMTSEEVVQKMTGLKVPLSHSRSNDTLYIPEWEGRAPDSVDYRKKGYVTPVKNQGQCGSCWAFSSVGALEGQLKKKTGKLLNLSPQNLVDCVSENDGCGGGYMTNAFQYVQKNRGIDSEDAYPYVGQEESCMYNPTGKAAKCRGYREIPEGNEKALKRAVARVGPVSVAIDASLTSFQFYSKGVYYDESCNSDNLNHAVLAVGYGIQKGNKHWIIKNSWGENWGNKGYILMARNKNNACGIANLASFPKM
percentage of EdU-negative [1, 9]: 4.75 ± 0.94%
percentage of EdU-negative ([1]; protein concentration 0.055 µM): 4.78 ± 0.37%
percentage of EdU-negative [2, 9]: 25.3 ± 2.9%
percentage of EdU-negative ([2]; protein concentration 0.055 µM): 27.4 ± 1.2%
